The target in assay [1] is NM, the prion domain (N and M domains) of the yeast translation termination factor Sup35, untagged (yeast) (UniProt P05453).
Assay [2] has the same target. The source holds these as a separate data set.
For assay [3] the target is unchanged. The source holds these as a separate data set.

NM, the prion domain (N and M domains) of the yeast translation termination factor Sup35, untagged (yeast), sequence (P05453 1-253): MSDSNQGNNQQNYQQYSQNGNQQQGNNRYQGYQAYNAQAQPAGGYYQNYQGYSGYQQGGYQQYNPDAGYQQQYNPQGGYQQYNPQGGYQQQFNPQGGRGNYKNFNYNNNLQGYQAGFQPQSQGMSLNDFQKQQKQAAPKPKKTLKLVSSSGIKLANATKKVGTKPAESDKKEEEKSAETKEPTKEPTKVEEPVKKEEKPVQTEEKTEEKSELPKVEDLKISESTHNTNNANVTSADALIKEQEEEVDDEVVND

Consider “Hsp26, yeast small heat shock protein (from UniProt P15992 1-214) (natural protein)”, for which, in assay [1], the inhibition of NM (5 µM) fibrillization seeded by preformed NM fibers (5% wt/wt), 12 h at 25°C, ThT fluorescence; IC50 of Hsp26 stood at 1900 nM. In assay [2], this substance yielded a pyrene excimer fluorescence of fibers of single cysteine NM mutants after 60 min with Hsp26 (10 µM); reduction at N-terminal positions 2 and 7 (slightly reduced in Head 21-38 and Tail 86-106) of 2 fold. In addition, the inhibition of seeded NM fibrillization by Hsp26 pretreated at 45°C for 10 min, ThT fluorescence; IC50 in assay [3] is > 24000 nM.

The values are drawn from PMC3378601.
